Data from article PMC7022552, “Structural and Functional Analyses of Human ChaC2 in Glutathione Metabolism” (Biomolecules, 2019).
Values joined by “and” are separate entries in the source; they are usually repeats but may differ in a detail not shown here. Equal values may be shown once.

Assays:
[1] = target: human ChaC2 (wild type) (human) (UniProt Q8WUX2); assay: crystal structure; wild type ChaC2 crystals, hanging drop, 14% PEG 8000, 14% ethylene glycol, 100 mM HEPES pH 7.5, 22 °C; three molecules in the asymmetric unit, each in a crystallographic dimer with a molecule of a nearby asymmetric unit
[2] = target: the molecule itself; assay: SEC; HiLoad 16/600 Superdex 75 pg, 20 mM Tris-HCl pH 7.1, 150 mM NaCl, 5 mM DTT, 2% glycerol, 1 mL/min, calibrated with molecular weight standards

## human ChaC2 (wild type) (from UniProt Q8WUX2 1-184) (enzyme)
[1]
  stoichiometry N: 2

B1: human ChaC1 (enzyme, UniProt Q9BUX1 1-222, looked up)
chain: MKQESAAPNTPPTSQSPTPSAQFPRNDGDPQALWIFGYGSLVWRPDFAYSDSRVGFVRGYSRRFWQGDTFHRGSDKMPGRVVTLLEDHEGCTWGVAYQVQGEQVSKALKYLNVREAVLGGYDTKEVTFYPQDAPDQPLKALAYVATPQNPGYLGPAPEEAIATQILACRGFSGHNLEYLLRLADFMQLCGPQAQDEHLAAIVDAVGTMLPCFCPTEQALALV
notes: human ChaC1, cDNA from the Korean Human Gene Bank, cloned into pET-21a between BamHI and XhoI; source: E. coli C41 (DE3), purified (Ni2+ HiTrap Chelating HP, HiTrap Q HP, Superdex 75 pg)
[2]
  stoichiometry N: 2 and 4
